Measured values as given in patent US20160008485A1 (Pfizer, published 2016).
“And” between values parts separate entries of the source, which are not always exact repeats. Equal values may be shown once.

T1: human 5T4 antigen on cells (MDAMB435/5T4 transfectants; MDA-MB-468) (human, UniProt Q13641 32-420)
T1 sequence (looked up): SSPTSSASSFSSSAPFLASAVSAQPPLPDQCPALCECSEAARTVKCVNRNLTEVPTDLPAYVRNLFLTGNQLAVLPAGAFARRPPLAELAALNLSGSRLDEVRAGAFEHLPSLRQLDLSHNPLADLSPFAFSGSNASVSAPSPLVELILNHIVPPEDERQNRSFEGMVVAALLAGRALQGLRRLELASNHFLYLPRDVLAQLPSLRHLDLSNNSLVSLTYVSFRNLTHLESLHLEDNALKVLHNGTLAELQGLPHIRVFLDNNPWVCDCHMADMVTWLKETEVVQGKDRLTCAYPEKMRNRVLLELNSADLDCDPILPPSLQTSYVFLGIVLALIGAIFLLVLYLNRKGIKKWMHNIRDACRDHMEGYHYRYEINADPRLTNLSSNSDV

T2: human truncated recombinant 5T4 protein (5T4-tm-_myc_his) (human, UniProt Q13641 32-355)
T2 construct: extracellular domain; Coated on the ELISA plate; construct cited to Boghaert et al. 2008; also called 5T4 antigen; not shown: Myc and histidine tags
T2 sequence (looked up): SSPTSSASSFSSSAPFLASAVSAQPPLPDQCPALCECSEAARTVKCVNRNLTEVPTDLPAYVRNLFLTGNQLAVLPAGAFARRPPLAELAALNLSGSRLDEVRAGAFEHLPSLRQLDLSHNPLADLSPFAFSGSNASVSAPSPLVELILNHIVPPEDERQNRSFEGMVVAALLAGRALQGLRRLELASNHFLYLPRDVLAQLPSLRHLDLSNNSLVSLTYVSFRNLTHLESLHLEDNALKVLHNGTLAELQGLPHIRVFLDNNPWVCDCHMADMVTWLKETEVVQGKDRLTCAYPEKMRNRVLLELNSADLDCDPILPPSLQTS


Columns and labels:
human FcRn = target: T3, human FcRn (human, UniProt P55899 24-297; P61769 21-119, limits assumed, biotinylated through an engineered Avi-tag); test: BIAcore SPR, steady state, pH 6.0, biotinylated human FcRn on SA chip
T3 construct: Immobilised on a streptavidin chip; not shown: engineered Avi-tag
T3 sequence (P55899 24-297 limits assumed, chain 1 of 2): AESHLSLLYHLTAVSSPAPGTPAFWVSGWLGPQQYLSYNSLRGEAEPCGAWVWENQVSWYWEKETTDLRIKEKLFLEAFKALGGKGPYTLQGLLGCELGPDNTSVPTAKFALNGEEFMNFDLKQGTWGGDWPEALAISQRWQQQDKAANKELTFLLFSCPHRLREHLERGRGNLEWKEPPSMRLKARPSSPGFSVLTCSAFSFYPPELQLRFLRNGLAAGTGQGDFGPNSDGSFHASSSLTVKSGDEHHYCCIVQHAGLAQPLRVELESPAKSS
T3 sequence (P61769 21-119 limits assumed, chain 2 of 2): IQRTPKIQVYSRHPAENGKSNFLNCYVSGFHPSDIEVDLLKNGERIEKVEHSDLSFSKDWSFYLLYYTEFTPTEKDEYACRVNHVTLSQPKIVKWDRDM

[1] = target: T1, human 5T4 antigen on cells …; test: cell-based or functional assay
[2] = target: T2, human truncated recombinant 5T4 protein …; test: competition ELISA on plate-coated 5T4-tm-_myc_his; competitor: biotinylated wild type anti-5T4 antibody at 1.3 nM, detected with streptavidin-HRP, OD450
Procedure: That is, both the variants and the control wild type antibodies comprised human IgG1 Fc regions. […] The contents of the plate were discarded and then the plate was blocked with PBS-CMF pH7.2+0.02% casein for 3 hours at room temperature.
The wells were washed four times with PBS-CMF pH7.2+0.03% tween-20. Streptavidin-HRP (catalog #7100-05, Southern Biotech, (Birmingham, Ala.) diluted 1:10,000 was added and incubated for 30 minutes at room temperature. The wells were washed four times with PBS-CMF pH 7.2+0.03% tween-20 and TMB (BioFx) was added.

Row | Binder | IC50, growth inhibition (MTS), MDA-MB-468 cells (5T4 expression 2+) [1] | IC-50, growth inhibition (MTS), MDAMB435/5T4 cells (5T4 expression 3+) [1] [ng ADC/ml] | also measured
1 | 5T4-E380C (antibody, human IgG1, kappa) heavy: not shown light: DIQMTQSPSSLSASVGDRVTITCKASQSVSNDVAWYQQKPGKAPKLLIYFATNRYTGVPSRFSGSGYGTDFTLTISSLQPEDFATYYCQQDYSSPWTFGQGTKVEIKRTVAAPSVFIFPPSDEQLKSGTASVVCLLNNFYPREAKVQWKVDNALQSGNSQESVTEQDSKDSTYSLSSTLTLSKADYEKHKVYACEVTHQGLSSPVTKSFNRGEC |  |  | Kd (human FcRn): 390 nM
2 | 5T4-K392C-mcMMAD (antibody, human IgG1, kappa, mcMMAD on engineered Cys 392 (EU)) heavy: not shown light: DIQMTQSPSSLSASVGDRVTITCKASQSVSNDVAWYQQKPGKAPKLLIYFATNRYTGVPSRFSGSGYGTDFTLTISSLQPEDFATYYCQQDYSSPWTFGQGTKVEIKRTVAAPSVFIFPPSDEQLKSGTASVVCLLNNFYPREAKVQWKVDNALQSGNSQESVTEQDSKDSTYSLSSTLTLSKADYEKHKVYACEVTHQGLSSPVTKSFNRGEC | 32 µg/mL | 160 | 
3 | 5T4-V422C-vcMMAD (antibody, human IgG1, kappa, vcMMAD (mcValCitPABC-MMAD) on engineered Cys 422 (EU)) heavy: not shown light: DIQMTQSPSSLSASVGDRVTITCKASQSVSNDVAWYQQKPGKAPKLLIYFATNRYTGVPSRFSGSGYGTDFTLTISSLQPEDFATYYCQQDYSSPWTFGQGTKVEIKRTVAAPSVFIFPPSDEQLKSGTASVVCLLNNFYPREAKVQWKVDNALQSGNSQESVTEQDSKDSTYSLSSTLTLSKADYEKHKVYACEVTHQGLSSPVTKSFNRGEC |  | 15 | 
4 | 5T4-E380C+L443C-mcMMAD (antibody, mcMMAD on engineered Cys 380 and Cys 443 (EU)) heavy: not shown light: DIQMTQSPSSLSASVGDRVTITCKASQSVSNDVAWYQQKPGKAPKLLIYFATNRYTGVPSRFSGSGYGTDFTLTISSLQPEDFATYYCQQDYSSPWTFGQGTKVEIKRTVAAPSVFIFPPSDEQLKSGTASVVCLLNNFYPREAKVQWKVDNALQSGNSQESVTEQDSKDSTYSLSSTLTLSKADYEKHKVYACEVTHQGLSSPVTKSFNRGEC | 3.3 µg/mL | 79 | 
5 | 5T4-L398C+L443C-mcMMAD (antibody, mcMMAD on engineered Cys 398 and Cys 443 (EU)) heavy: not shown light: DIQMTQSPSSLSASVGDRVTITCKASQSVSNDVAWYQQKPGKAPKLLIYFATNRYTGVPSRFSGSGYGTDFTLTISSLQPEDFATYYCQQDYSSPWTFGQGTKVEIKRTVAAPSVFIFPPSDEQLKSGTASVVCLLNNFYPREAKVQWKVDNALQSGNSQESVTEQDSKDSTYSLSSTLTLSKADYEKHKVYACEVTHQGLSSPVTKSFNRGEC | 5.5 µg/mL and 7.1 µg/mL |  | 
6 | 5T4-L398C-vcMMAD (antibody, human IgG1, kappa, vcMMAD (mcValCitPABC-MMAD) on engineered Cys 398 (EU)) heavy: not shown light: DIQMTQSPSSLSASVGDRVTITCKASQSVSNDVAWYQQKPGKAPKLLIYFATNRYTGVPSRFSGSGYGTDFTLTISSLQPEDFATYYCQQDYSSPWTFGQGTKVEIKRTVAAPSVFIFPPSDEQLKSGTASVVCLLNNFYPREAKVQWKVDNALQSGNSQESVTEQDSKDSTYSLSSTLTLSKADYEKHKVYACEVTHQGLSSPVTKSFNRGEC |  | 14 | 
7 | 5T4-E380C-vcMMAD (antibody, human IgG1, kappa, vcMMAD (mcValCitPABC-MMAD) on engineered Cys 380 (EU)) heavy: not shown light: DIQMTQSPSSLSASVGDRVTITCKASQSVSNDVAWYQQKPGKAPKLLIYFATNRYTGVPSRFSGSGYGTDFTLTISSLQPEDFATYYCQQDYSSPWTFGQGTKVEIKRTVAAPSVFIFPPSDEQLKSGTASVVCLLNNFYPREAKVQWKVDNALQSGNSQESVTEQDSKDSTYSLSSTLTLSKADYEKHKVYACEVTHQGLSSPVTKSFNRGEC |  | 15 | 
8 | 5T4-E380C+L398C-mcMMAD (antibody, human IgG1, kappa, mcMMAD on engineered Cys 380 and Cys 398 (EU)) heavy: not shown light: DIQMTQSPSSLSASVGDRVTITCKASQSVSNDVAWYQQKPGKAPKLLIYFATNRYTGVPSRFSGSGYGTDFTLTISSLQPEDFATYYCQQDYSSPWTFGQGTKVEIKRTVAAPSVFIFPPSDEQLKSGTASVVCLLNNFYPREAKVQWKVDNALQSGNSQESVTEQDSKDSTYSLSSTLTLSKADYEKHKVYACEVTHQGLSSPVTKSFNRGEC | 5.1 µg/mL | 79 | 
9 | 5T4-L443C-vcMMAD (antibody, vcMMAD (mcValCitPABC-MMAD) on engineered Cys 443 (EU)) heavy: not shown light: DIQMTQSPSSLSASVGDRVTITCKASQSVSNDVAWYQQKPGKAPKLLIYFATNRYTGVPSRFSGSGYGTDFTLTISSLQPEDFATYYCQQDYSSPWTFGQGTKVEIKRTVAAPSVFIFPPSDEQLKSGTASVVCLLNNFYPREAKVQWKVDNALQSGNSQESVTEQDSKDSTYSLSSTLTLSKADYEKHKVYACEVTHQGLSSPVTKSFNRGEC | 1.4 µg/mL | 40 | 
10 | 5T4-L398C+V422C-mcMMAD (antibody, human IgG1, kappa, mcMMAD on engineered Cys 398 and Cys 422 (EU)) heavy: not shown light: DIQMTQSPSSLSASVGDRVTITCKASQSVSNDVAWYQQKPGKAPKLLIYFATNRYTGVPSRFSGSGYGTDFTLTISSLQPEDFATYYCQQDYSSPWTFGQGTKVEIKRTVAAPSVFIFPPSDEQLKSGTASVVCLLNNFYPREAKVQWKVDNALQSGNSQESVTEQDSKDSTYSLSSTLTLSKADYEKHKVYACEVTHQGLSSPVTKSFNRGEC | 17 µg/mL | 100 | 
11 | 5T4-K392C+L443C-mcMMAD (antibody, mcMMAD on engineered Cys 392 and Cys 443 (EU)) heavy: not shown light: DIQMTQSPSSLSASVGDRVTITCKASQSVSNDVAWYQQKPGKAPKLLIYFATNRYTGVPSRFSGSGYGTDFTLTISSLQPEDFATYYCQQDYSSPWTFGQGTKVEIKRTVAAPSVFIFPPSDEQLKSGTASVVCLLNNFYPREAKVQWKVDNALQSGNSQESVTEQDSKDSTYSLSSTLTLSKADYEKHKVYACEVTHQGLSSPVTKSFNRGEC | 30 µg/mL | 98 | 
12 | 5T4-E380C+V422C-mcMMAD (antibody, human IgG1, kappa, mcMMAD on engineered Cys 380 and Cys 422 (EU)) heavy: not shown light: DIQMTQSPSSLSASVGDRVTITCKASQSVSNDVAWYQQKPGKAPKLLIYFATNRYTGVPSRFSGSGYGTDFTLTISSLQPEDFATYYCQQDYSSPWTFGQGTKVEIKRTVAAPSVFIFPPSDEQLKSGTASVVCLLNNFYPREAKVQWKVDNALQSGNSQESVTEQDSKDSTYSLSSTLTLSKADYEKHKVYACEVTHQGLSSPVTKSFNRGEC | 5 µg/mL | 100 | 
13 | 5T4-L398C (antibody, human IgG1, kappa) heavy: not shown light: DIQMTQSPSSLSASVGDRVTITCKASQSVSNDVAWYQQKPGKAPKLLIYFATNRYTGVPSRFSGSGYGTDFTLTISSLQPEDFATYYCQQDYSSPWTFGQGTKVEIKRTVAAPSVFIFPPSDEQLKSGTASVVCLLNNFYPREAKVQWKVDNALQSGNSQESVTEQDSKDSTYSLSSTLTLSKADYEKHKVYACEVTHQGLSSPVTKSFNRGEC |  |  | Kd (human FcRn): 513 nM; IC50 (read off the curve) [2]: ~7 nM
14 | 5T4-F404C (antibody, human IgG1, kappa) heavy: not shown light: DIQMTQSPSSLSASVGDRVTITCKASQSVSNDVAWYQQKPGKAPKLLIYFATNRYTGVPSRFSGSGYGTDFTLTISSLQPEDFATYYCQQDYSSPWTFGQGTKVEIKRTVAAPSVFIFPPSDEQLKSGTASVVCLLNNFYPREAKVQWKVDNALQSGNSQESVTEQDSKDSTYSLSSTLTLSKADYEKHKVYACEVTHQGLSSPVTKSFNRGEC |  |  | binding result [2]: binds
15 | 5T4-K392C (antibody, human IgG1, kappa) heavy: not shown light: DIQMTQSPSSLSASVGDRVTITCKASQSVSNDVAWYQQKPGKAPKLLIYFATNRYTGVPSRFSGSGYGTDFTLTISSLQPEDFATYYCQQDYSSPWTFGQGTKVEIKRTVAAPSVFIFPPSDEQLKSGTASVVCLLNNFYPREAKVQWKVDNALQSGNSQESVTEQDSKDSTYSLSSTLTLSKADYEKHKVYACEVTHQGLSSPVTKSFNRGEC |  |  | Kd (human FcRn): 384 nM
16 | 5T4-S440C (antibody, IgG1) heavy: not shown light: DIQMTQSPSSLSASVGDRVTITCKASQSVSNDVAWYQQKPGKAPKLLIYFATNRYTGVPSRFSGSGYGTDFTLTISSLQPEDFATYYCQQDYSSPWTFGQGTKVEIKRTVAAPSVFIFPPSDEQLKSGTASVVCLLNNFYPREAKVQWKVDNALQSGNSQESVTEQDSKDSTYSLSSTLTLSKADYEKHKVYACEVTHQGLSSPVTKSFNRGEC |  |  | Kd (human FcRn): 608 nM; IC50 (read off the curve) [2]: ~6 nM
17 | 5T4-V422C (antibody, human IgG1, kappa) heavy: not shown light: DIQMTQSPSSLSASVGDRVTITCKASQSVSNDVAWYQQKPGKAPKLLIYFATNRYTGVPSRFSGSGYGTDFTLTISSLQPEDFATYYCQQDYSSPWTFGQGTKVEIKRTVAAPSVFIFPPSDEQLKSGTASVVCLLNNFYPREAKVQWKVDNALQSGNSQESVTEQDSKDSTYSLSSTLTLSKADYEKHKVYACEVTHQGLSSPVTKSFNRGEC |  |  | Kd (human FcRn): 443 nM; IC50 (read off the curve) [2]: ~7 nM
18 | 5T4-T359C (antibody, human IgG1, kappa) heavy: not shown light: DIQMTQSPSSLSASVGDRVTITCKASQSVSNDVAWYQQKPGKAPKLLIYFATNRYTGVPSRFSGSGYGTDFTLTISSLQPEDFATYYCQQDYSSPWTFGQGTKVEIKRTVAAPSVFIFPPSDEQLKSGTASVVCLLNNFYPREAKVQWKVDNALQSGNSQESVTEQDSKDSTYSLSSTLTLSKADYEKHKVYACEVTHQGLSSPVTKSFNRGEC |  |  | IC50 (read off the curve) [2]: ~6 nM
